Experimental findings from patent publication US20220143204A1 (LINXIS B V, published 2022) are described below.

The target in assay [1] is T1, rat PDGFRB on SCC VII cells (rat, UniProt Q05030 32-1097).
T1 construct: whole, on cells; also called rPDGFRB; SCC-rPDGFRB
The experiment in a line: binding assay on SCC VII cells transfected with rat PDGFRB (Example 4).

Assay [2] addresses T2, rat PDGFRB extracellular domain (rat, UniProt Q05030 32-531).
T2 construct: extracellular domain; also called rPDGFRB-ECD; rat PDGFRB ectodomain
T2 sequence (looked up): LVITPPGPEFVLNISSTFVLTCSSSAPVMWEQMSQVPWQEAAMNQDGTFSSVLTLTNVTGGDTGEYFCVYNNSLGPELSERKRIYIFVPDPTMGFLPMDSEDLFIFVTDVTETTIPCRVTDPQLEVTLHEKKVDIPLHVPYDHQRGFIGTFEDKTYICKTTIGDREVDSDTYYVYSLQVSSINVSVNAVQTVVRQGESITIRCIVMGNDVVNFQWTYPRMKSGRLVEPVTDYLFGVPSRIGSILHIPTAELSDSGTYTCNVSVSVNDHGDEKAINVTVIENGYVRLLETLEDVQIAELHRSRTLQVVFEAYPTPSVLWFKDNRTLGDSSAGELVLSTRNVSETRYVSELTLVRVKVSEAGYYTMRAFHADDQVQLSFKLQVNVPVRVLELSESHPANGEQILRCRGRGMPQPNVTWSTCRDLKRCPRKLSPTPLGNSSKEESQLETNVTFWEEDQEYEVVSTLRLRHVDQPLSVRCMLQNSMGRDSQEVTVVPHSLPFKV
The experiment in a line: binding assay on immobilised rat PDGFRB ectodomain, apparent affinity (Example 4).

Assay [3] concerns the target T1, rat PDGFRB on SCC VII cells. The assay can be described thus: binding assay on SCC VII cells transfected with rat PDGFRB-GFP, VHH detected with anti-VHH rabbit serum and IRDye800CW secondary antibody; binding in % (n=2) [right panel]. The protocol: (§1) FIG. 9. Binding of selected VHHs on SCC VII cells transfected with either the human or rat PDGFRB receptor (SCC-hP or SCC-rP) fused to GFP. The VHH is detected using anti-VHH rabbit serum and donkey-anti-rabbit secondary antibody labelled with IRDye800CW.
(§2) The results are summarized in FIGS. 5 and 6 for the hPDGFRB and rPDGFRB VHHs, respectively. […] Moreover, the binding affinities of the hPDGFRB VHHs human were also determined on the human hepatic stellate cell (HSC) line LX-2 (FIG. 5).

The target of assay [4] is T3, human PDGFRB on SCC VII cells (human, UniProt P09619 33-1106).
T3 construct: whole, on cells; also called hPDGFRB; SCC-hPDGFRB
T3 sequence (P09619 33-1106): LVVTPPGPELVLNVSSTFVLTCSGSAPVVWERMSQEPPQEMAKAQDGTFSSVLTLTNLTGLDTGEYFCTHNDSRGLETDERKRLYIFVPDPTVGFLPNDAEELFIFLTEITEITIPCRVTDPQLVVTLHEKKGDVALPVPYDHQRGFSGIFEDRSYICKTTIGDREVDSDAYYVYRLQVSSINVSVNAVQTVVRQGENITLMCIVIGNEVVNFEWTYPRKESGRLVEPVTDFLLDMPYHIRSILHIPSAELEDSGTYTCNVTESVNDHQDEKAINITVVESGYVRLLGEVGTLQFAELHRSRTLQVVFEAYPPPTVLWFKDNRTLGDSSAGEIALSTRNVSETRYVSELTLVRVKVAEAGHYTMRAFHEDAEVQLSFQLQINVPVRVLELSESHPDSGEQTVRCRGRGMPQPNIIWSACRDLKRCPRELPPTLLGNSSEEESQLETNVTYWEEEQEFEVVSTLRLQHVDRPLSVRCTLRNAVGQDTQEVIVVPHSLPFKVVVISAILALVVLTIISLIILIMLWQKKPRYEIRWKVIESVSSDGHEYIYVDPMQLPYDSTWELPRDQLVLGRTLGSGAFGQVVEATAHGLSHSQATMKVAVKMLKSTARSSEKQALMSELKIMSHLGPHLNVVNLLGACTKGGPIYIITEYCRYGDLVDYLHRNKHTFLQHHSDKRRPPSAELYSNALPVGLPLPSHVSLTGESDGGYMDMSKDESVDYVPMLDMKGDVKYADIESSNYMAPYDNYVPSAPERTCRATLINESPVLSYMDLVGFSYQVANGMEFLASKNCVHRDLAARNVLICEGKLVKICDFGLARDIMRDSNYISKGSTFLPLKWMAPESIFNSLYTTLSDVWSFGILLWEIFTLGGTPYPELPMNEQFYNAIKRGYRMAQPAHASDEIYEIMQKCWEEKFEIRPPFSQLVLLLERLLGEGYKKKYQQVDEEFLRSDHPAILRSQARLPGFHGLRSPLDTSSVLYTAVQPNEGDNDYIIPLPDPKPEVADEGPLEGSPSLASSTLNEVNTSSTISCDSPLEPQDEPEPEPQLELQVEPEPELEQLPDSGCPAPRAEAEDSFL
The experiment in a line: binding assay on SCC VII cells transfected with hPDGFRB. The method, then:
(§3) Based on their high affinity and binding to non-overlapping hPDGRB epitopes, VHHs SP02P, SP12P SP14P and […] were selected for the design of biparatopic VHH constructs and produced in a similar way as described in example 6.1. (FIG. 15A). The binding affinities of the biparatopic constructs were determined with an ELISA assay with the periplasm (FIG. 15A). Moreover, based on their high affinity and binding to non-overlapping rPDGRB epitopes, VHHs SP26P and SP28P were selected for the design of a biparatopic VHH construct and produced in a similar way as described in example 6.1. The formed biparatopic SP28P-SP26P was conjugated to IRDye800CW (SP28P-SP26P-IRDye800CW conjugation method as described in example 9.2) and subjected to a binding assay SCC VII cells transfected with hPDGFRB, rPDGFRB or hIGF2R were performed (FIG. 15B). […] In order to create a biparatopic VHH construct which is cross-reactive for hPDGFRB and rPDGFRB, VHH SP02P binding to hPDGFRB and VHH SP026P binding to rPDGFRB were selected and the biparatopic construct SP02P-SP26P was produced in a similar way as described in example 6.1. (FIG. 15C). Construct SP02P-SP26P was conjugated to IRDye800CW (SP02P-SP26P-IRDye800CW, conjugation method as described in example 9.2) and subjected to bindings assays on SCC VII cells transfected with hPDGFRB, rPDGFRB or hIGF2R were performed (FIG. 15C).

Assay [5] has as its target T3, human PDGFRB on SCC VII cells. The assay can be described thus: binding assay of the IRDye800CW conjugate on SCC VII cells transfected with human PDGFRB, fluorescence at 800 nm. The method, then: as §3
In assay [6] the target is T4, rat IGF2R on cells (rat, UniProt A0A8I6GLL6 43-2479).
T4 construct: whole, on cells; also called rIGF2R
The assay can be described thus: binding assay on SCC VII cells over-expressing rat IGF2R. The method, then:
(§4) To determine whether 13F11-13E8 is cross-reactive against rIGF2R, the construct was conjugated to IRDye800CW (13F11-13E8-IRDye800CW, conjugation method as described in example 9.2) and the binding affinity was determined using a binding assay on SCC VII cells over-expressing either human, or rat IGF2R (FIG. 12).

In assay [7] the target is T5, human IGF2R on cells (human, UniProt P11717 41-2491).
T5 construct: whole, on cells; On SCC VII cells over-expressing human IGF2R, NIH 3T3 2.2 cells transiently transfected with hIGF2R, or A549 cells, as told under assay or readout; also called hIGF2R
T5 sequence (P11717 41-2491): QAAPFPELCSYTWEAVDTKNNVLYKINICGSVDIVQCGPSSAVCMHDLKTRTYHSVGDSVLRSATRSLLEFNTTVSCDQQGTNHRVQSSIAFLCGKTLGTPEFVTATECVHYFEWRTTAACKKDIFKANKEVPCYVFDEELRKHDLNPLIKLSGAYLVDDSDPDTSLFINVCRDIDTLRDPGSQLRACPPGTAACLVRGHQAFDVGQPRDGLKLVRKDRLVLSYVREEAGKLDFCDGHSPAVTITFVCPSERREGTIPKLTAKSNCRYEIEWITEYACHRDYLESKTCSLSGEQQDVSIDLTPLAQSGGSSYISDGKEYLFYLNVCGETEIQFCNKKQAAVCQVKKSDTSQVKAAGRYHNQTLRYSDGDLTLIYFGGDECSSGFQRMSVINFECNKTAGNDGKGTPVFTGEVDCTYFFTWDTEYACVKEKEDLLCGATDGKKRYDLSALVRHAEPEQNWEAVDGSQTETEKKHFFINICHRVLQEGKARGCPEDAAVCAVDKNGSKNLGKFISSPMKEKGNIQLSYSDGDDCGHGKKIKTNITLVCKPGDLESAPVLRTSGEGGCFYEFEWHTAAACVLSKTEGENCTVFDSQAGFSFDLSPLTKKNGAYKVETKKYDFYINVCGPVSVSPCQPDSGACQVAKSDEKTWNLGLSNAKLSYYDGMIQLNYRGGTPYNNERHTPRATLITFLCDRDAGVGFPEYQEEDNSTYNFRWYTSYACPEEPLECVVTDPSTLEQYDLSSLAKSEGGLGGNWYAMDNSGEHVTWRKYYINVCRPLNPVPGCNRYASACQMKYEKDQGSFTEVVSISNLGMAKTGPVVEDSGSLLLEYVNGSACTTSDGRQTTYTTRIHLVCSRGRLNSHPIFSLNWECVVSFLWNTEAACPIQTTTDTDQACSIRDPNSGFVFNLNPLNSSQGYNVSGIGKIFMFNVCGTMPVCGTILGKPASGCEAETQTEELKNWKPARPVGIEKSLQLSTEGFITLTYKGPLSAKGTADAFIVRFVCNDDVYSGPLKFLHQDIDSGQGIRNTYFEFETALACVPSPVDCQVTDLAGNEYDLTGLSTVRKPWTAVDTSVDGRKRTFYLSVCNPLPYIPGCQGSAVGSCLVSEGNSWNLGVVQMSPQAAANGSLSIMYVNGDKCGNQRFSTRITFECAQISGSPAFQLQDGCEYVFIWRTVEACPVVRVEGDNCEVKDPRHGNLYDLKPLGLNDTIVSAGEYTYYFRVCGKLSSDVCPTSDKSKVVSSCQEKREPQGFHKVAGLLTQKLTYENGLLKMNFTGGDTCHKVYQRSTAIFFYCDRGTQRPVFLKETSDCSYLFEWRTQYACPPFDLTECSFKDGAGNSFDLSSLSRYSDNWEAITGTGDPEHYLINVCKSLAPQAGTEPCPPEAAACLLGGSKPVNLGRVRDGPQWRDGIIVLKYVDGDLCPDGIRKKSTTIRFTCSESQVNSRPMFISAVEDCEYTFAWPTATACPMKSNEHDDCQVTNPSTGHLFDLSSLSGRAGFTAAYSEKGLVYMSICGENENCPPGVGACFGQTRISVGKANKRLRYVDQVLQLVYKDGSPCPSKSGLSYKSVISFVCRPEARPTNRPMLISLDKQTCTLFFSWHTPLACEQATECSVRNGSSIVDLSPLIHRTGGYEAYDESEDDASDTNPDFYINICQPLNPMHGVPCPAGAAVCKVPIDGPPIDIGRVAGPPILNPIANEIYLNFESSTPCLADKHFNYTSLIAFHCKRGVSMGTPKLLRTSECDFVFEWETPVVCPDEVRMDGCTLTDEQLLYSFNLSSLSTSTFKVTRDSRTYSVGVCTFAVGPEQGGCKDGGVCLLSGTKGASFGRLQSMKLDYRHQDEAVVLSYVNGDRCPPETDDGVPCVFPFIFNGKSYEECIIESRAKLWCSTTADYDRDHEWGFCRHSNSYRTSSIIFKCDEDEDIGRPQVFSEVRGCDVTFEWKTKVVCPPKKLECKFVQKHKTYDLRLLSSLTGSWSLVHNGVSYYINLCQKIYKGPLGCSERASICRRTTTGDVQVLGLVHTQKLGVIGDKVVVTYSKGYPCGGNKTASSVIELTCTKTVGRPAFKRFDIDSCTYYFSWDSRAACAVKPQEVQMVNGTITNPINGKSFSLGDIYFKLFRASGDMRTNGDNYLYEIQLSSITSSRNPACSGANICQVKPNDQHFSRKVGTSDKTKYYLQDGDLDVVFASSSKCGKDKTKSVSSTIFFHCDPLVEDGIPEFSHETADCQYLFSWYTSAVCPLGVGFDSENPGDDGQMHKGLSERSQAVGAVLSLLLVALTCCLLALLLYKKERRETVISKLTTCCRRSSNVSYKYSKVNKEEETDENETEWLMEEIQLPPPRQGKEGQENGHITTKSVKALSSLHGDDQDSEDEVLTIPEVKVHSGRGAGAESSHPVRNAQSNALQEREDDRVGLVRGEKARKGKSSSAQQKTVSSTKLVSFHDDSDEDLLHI
The assay can be described thus: binding assay on SCC VII cells over-expressing human IGF2R. The method, then:
as §4

Assay [8] has as its target T6, human PDGFRB extracellular domain (human, UniProt P09619 33-532).
T6 construct: extracellular domain; also called hPDGFRB-ECD; human PDGFRB ectodomain
The experiment in a line: binding and competition assays of Examples 4 and 5.

Assay [9] addresses PDGFRB ECD. The assay can be described thus: competition ELISA on PDGFRB ECD: unconjugated competitor titrated against SP26P-IRDye800, fluorescence at 800 nm. The protocol: Competition ELISAs were carried out to determine whether the hPDGFRB specific binders (FIG. 5) and rPDGFRB specific binders (FIG. 6) recognize distinct epitopes on hPDGFRB or rPDGFRB, respectively. The hPDGFRB binding VHHs SP02P, SP05P, SP12P and SP14P and the rPDGFRB binder SP26P were conjugated to IRDye800CW (VHH-IRDye800CW, conjugation method as described in example 9.2) and each conjugated VHH was mixed with unconjugated competitor in trifold serial dilutions and incubated on immobilized […]. Two VHHs share (part of) the same epitope when the fluorescence signal of the VHH-IRDye800CW decreases upon increasing concentration of unconjugated VHH. Furthermore, using a similar method as described in section 5.1, binding epitope competition between the hPDGFRB binding VHH SP02P and rPDGFRB binding VHH SP26P was performed. No competition was observed between the two VHHs qualifying them as building blocks for biparatopic binding molecules (FIG. 11).
PDGFRB ECD, sequence (P09619 33-532): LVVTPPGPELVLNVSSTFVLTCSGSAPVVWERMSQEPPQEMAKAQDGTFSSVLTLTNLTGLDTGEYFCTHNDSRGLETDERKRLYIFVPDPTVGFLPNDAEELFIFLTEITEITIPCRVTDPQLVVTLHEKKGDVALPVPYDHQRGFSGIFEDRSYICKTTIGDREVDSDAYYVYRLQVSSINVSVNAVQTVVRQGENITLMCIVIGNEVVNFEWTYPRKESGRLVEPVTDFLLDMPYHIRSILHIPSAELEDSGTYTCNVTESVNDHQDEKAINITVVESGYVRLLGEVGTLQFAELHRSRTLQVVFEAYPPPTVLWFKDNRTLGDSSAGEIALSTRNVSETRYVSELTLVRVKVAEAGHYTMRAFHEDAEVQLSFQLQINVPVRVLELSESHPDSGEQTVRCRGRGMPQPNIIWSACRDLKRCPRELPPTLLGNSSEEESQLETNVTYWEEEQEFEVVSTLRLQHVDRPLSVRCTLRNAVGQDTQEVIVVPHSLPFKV
For orientation: ELISA stands for enzyme-linked immunosorbent assay.

The target in assay [10] is T7, human PDGFRB on LX-2 cells (human, UniProt P09619).
T7 construct: full-length receptor on the cell surface; The list has human PDGFRB only on SCC VII cells
T7 sequence (P09619 33-1106 limits assumed): as the sequence (P09619 33-1106) above
The experiment in a line: binding assay on the human hepatic stellate cell line LX-2 (Example 4).

Assay [11] has as its target T3, human PDGFRB on SCC VII cells. The assay can be described thus: binding assay on SCC VII cells transfected with human PDGFRB (Example 4).
Assay [12] addresses T6, human PDGFRB extracellular domain. The assay can be described thus: binding assay on immobilised human PDGFRB ectodomain, apparent affinity (Example 4).
Assay [13] concerns the target T3, human PDGFRB on SCC VII cells. The assay can be described thus: binding assay on SCC VII cells transfected with human PDGFRB-GFP, VHH detected with anti-VHH rabbit serum and IRDye800CW secondary antibody; binding in % (n=6) [left panel]. The protocol: as §1, §2

T6 sequence (P09619 33-532): as the sequence (P09619 33-532) above

B1: SP28P (VHH)
VHH: EVQLVESGGGLVQAGGSLRLSCAASGSIVSFNGINWYRQAPGKQREWVGGITQGGNTMYADSVRGRFTISRDNTKNTMYLQMNSLKPEDTAVYYCRRPPVASWGQGTQVTVSS
notes: Llama VHH; on phage in the phage ELISA
Consider B1, for which the Kd was 0.5 nM in [1] and 6 nM in assay [2]. Moreover, the 50% effective concentration (EC50 (read off the curve)) in [3] is ~0.6 nM.

B2: SP02P-SP26P-IRDye800CW (VHH, not shown: small tags and cut ends)
chain: EVQLVESGGGLVQAGGSLRLSCAASESISSIEQMGWFRQAPGKQRALVAINTYGGRTVYTNSVEGRFTMSRDSAKNMVYLQMTSLEPEDTAVYYCYAQTTAWRGGVWGQGTQVTVSSGGGGSGGGGSGGGGSEVQLVESGGGLVQAGGSLRLSCAASGRSFSSSVMGWFRQTPGKEREFVAATRWTAASTHYADSVKGRFTISRDHAENAVFLQMNSLKPEDTAVYYCAAGNYLDTAQYRYNYWGQGTQVTVSS
modifications: IRDye800CW by maleimide chemistry on the C-terminal free cysteine
notes: Biparatopic tandem VHH
Regarding B2, the Kd in assay [4] is < 5 nM; in assay [5] it was 2.2 nM.

B3: SP28P-SP26P-IRDye800CW (VHH, not shown: small tags and cut ends)
chain: EVQLVESGGGLVQAGGSLRLSCAASGSIVSFNGINWYRQAPGKQREWVGGITQGGNTMYADSVRGRFTISRDNTKNTMYLQMNSLKPEDTAVYYCRRPPVASWGQGTQVTVSSGGGGSGGGGSGGGGSEVQLVESGGGLVQAGGSLRLSCAASGRSFSSSVMGWFRQTPGKEREFVAATRWTAASTHYADSVKGRFTISRDHAENAVFLQMNSLKPEDTAVYYCAAGNYLDTAQYRYNYWGQGTQVTVSS
modifications: IRDye800CW by maleimide chemistry on the C-terminal free cysteine
notes: Biparatopic tandem VHH; also called SP28-SP26P; SP28-26P
On to B3, for which the Kd in [5] was 32.4 nM.

B4: 13F11-13E8-IRDye800CW (VHH, not shown: small tags and cut ends)
chain: EVQLVESGGRLVQPGDSLRLSCAASGRTFSDNAMGWFRQAPGKERRFVAGISWAGGSTYYSDSVKGRFTISRDNAKNTVYLQMNSLKPEDTAVYYCAAGLRAWVQRMPKDYNYWGQGTQVTVSSGGGGSGGGGSGGGGSEVQLVESGGGLVQAGGSLRLSCAASRSISPMGWYRQAPGKQRELVAIMPSSGPPIYADSVQGRFTISRDNAKNTVYLQMNSLKPEDTAVYYCNVGGGYWGQGTQVTVSS
modifications: IRDye800CW by maleimide chemistry on the C-terminal free cysteine
notes: Biparatopic tandem VHH; also called IRD800CW conjugated 13F11-13E8; F11E8
Take B4: the Kd in assay [6] and in [7] was < 10 nM in each case.

B5: SP26P (VHH)
VHH: EVQLVESGGGLVQAGGSLRLSCAASGRSFSSSVMGWFRQTPGKEREFVAATRWTAASTHYADSVKGRFTISRDHAENAVFLQMNSLKPEDTAVYYCAAGNYLDTAQYRYNYWGQGTQVTVSS
notes: Llama VHH; on phage in the phage ELISA; also called SP026P
On to B5, for which the binding result in assay [8] is listed as “binds”. Moreover, the “IC50 (read off the curve)” value in assay [9] was ~40 nM.

B6: SP02P (VHH)
VHH: EVQLVESGGGLVQAGGSLRLSCAASESISSIEQMGWFRQAPGKQRALVAINTYGGRTVYTNSVEGRFTMSRDSAKNMVYLQMTSLEPEDTAVYYCYAQTTAWRGGVWGQGTQVTVSS
notes: as for B1
Take B6: the Kd in assay [10] was 6.7 nM; in assay [11], 4.1 nM; in assay [12], 6.2 nM. Besides, in assay [13], the “EC50 (read off the curve)” value was ~4 nM.

As a reminder, the EC50 (read off the curve) is the midpoint of the concentration-response curve. A higher EC50 (read off the curve) goes with lower potency in that assay.
